Reference: paper PMC5788864

What was measured:
[1] = biological target: Zika virus NS5 methyltransferase (MTase) domain, amino acids 1-264, strain FSS13025, HA-tag (Zika virus strain FSS13025); test: co-IP
[2] = biological target: Zika virus NS5 RNA-dependent polymerase (RdRp) domain, amino acids 275-903, strain FSS13025, HA-tag (Zika virus strain FSS13025); test: co-IP

B1: interferon regulatory factor 3 (IRF3), endogenous (natural protein)
chain: MGTPKPRILPWLVSQLDLGQLEGVAWVNKSRTRFRIPWKHGLRQDAQQEDFGIFQAWAEATGAYVPGRDKPDLPTWKRNFRSALNRKEGLRLAEDRSKDPHDPHKIYEFVNSGVGDFSQPDTSPDTNGGGSTSDTQEDILDELLGNMVLAPLPDPGPPSLAVAPEPCPQPLRSPSLDNPTPFPNLGPSENPLKRLLVPGEEWEFEVTAFYRGRQVFQQTISCPEGLRLVGSEVGDRTLPGWPVTLPDPGMSLTDRGVMSYVRHVLSCLGGGLALWRAGQWLWAQRLGHCHTYWAVSEELLPNSGHGPDGEVPKDKEGGVFDLGPFIVDLITFTEGSGRSPRYALWFCVGESWPQDQPWTKRLVMVKVVPTCLRALVEMARVGGASSLENTVDLHISNSHPLSLTSDQYKAYLQDLVEGMDFQGPGES
Binder B1 has a percent of the full-length NS5 binding activity to IRF3 [1] of 82% and a percent of the full-length NS5 binding activity to IRF3 [2] of 51%.
